Results on two molecules are retold here after patent US20260103490A1.

For experiment [1], the target named is NbALFA^ST (NbALFA clone 1G5). As to the kind of experiment: off-rate assay: peptide elution from NbALFA^ST resin; tag position C.
Experiment [2] has as its target NbALFA^ST (NbALFA clone 1G5). As to the kind of experiment: off-rate assay: peptide elution from NbALFA^ST resin; tag position N.

Where no end group is shown, it is not given here. [ ]: non-standard residue; d: D form. Some results are limits rather than exact numbers.

Chain of NbALFA^ST (NbALFA clone 1G5) (VHH, as listed by the source): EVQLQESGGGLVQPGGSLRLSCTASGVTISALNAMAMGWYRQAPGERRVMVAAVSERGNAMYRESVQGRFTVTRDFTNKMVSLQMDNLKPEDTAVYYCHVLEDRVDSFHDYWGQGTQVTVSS

As to GPSGLEQELRRRL [gp…. (SEQ ID NO: 108)], in experiment [1], the t1/2 was < 2 min.

With MSGLEQELRRRLTP[code s] (not fully specified; printed as MSGLEQELRRRLTPs) […s (SEQ ID NO: 110)], the t1/2 in experiment [2] is < 2 min.
